Usually Km stands for the substrate concentration at which the rate is half of its maximum.

Data set [1] deals with T1, NoIPT1 (Nostoc sp. PCC 7120 = FACHB-418, UniProt A0ACD7S271).
T1 construct: gene all0220; full gene in pET-28b(+) (NdeI/SalI), N-terminal polyhistidine tag kept; E. coli BL21(DE3) STAR
T1 sequence (A0ACD7S271 1-244): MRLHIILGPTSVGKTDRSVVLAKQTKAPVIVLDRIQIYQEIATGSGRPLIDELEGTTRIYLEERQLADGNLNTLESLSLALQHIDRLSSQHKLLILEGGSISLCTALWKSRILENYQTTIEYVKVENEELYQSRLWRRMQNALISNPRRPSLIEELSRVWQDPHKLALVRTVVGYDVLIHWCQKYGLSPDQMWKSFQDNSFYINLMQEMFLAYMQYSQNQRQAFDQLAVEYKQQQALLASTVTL
As to the kind of experiment: HPLC-UV product determination; trans-zeatin-5'-monophosphate formed. It counts as biochemical. The following applies: with AMP, 10 mM MgCl2, pH 7.5, 25°C.

Substrate in data set [2]: Nc1ncnc2c1ncn2[C@@H]1O[C@H](COP(=O)(O)O)[C@@H](O)[C@H]1O
As to the kind of experiment: purified protein. It counts as biochemical, Nostoc sp. PCC 7120 = FACHB-418. The following applies: 150 μM DMAPP, 10 mM MgCl2, 100 mM Tris/HCl pH 7.5, 25°C.

Substrate in data set [3]: CC(C)=CCOP(=O)(O)OP(=O)(O)O
Briefly: purified protein. It counts as biochemical, Nostoc sp. PCC 7120 = FACHB-418. The following applies: 20 μM AMP, 10 mM MgCl2, 100 mM Tris/HCl pH 7.5, 25°C.

For `C/C(=C\COP(=O)(O)OP(=O)(O)O)CO` [HMBPP, (E)-4-hydroxy-3-methyl-but-2-enyl diphosphate], the “HPLC-UV product determination; trans-zeatin-5'-monophosphate formed” value in data set [1] is recorded as “NoIPT1 used a hydroxylated side chain precursor, HMBPP, to form trans-zeatin-5´-monophosphate in the reaction with AMP”.

B1: NoIPT1 (Nostoc sp. PCC 7120 = FACHB-418) (protein)
chain: MRLHIILGPTSVGKTDRSVVLAKQTKAPVIVLDRIQIYQEIATGSGRPLIDELEGTTRIYLEERQLADGNLNTLESLSLALQHIDRLSSQHKLLILEGGSISLCTALWKSRILENYQTTIEYVKVENEELYQSRLWRRMQNALISNPRRPSLIEELSRVWQDPHKLALVRTVVGYDVLIHWCQKYGLSPDQMWKSFQDNSFYINLMQEMFLAYMQYSQNQRQAFDQLAVEYKQQQALLASTVTL
notes: full gene in pET-28b(+) (NdeI/SalI), N-terminal polyhistidine tag kept; E. coli BL21(DE3) STAR
Turning to B1, the Michaelis-Menten constant (Km) in data set [2] came out at 0.63 ± 0.18 µM; in data set [3] it was 27.05 ± 2.47 µM.

The values above are taken from publication PMC4574047, “Biochemical Characterization of Putative Adenylate Dimethylallyltransferase and Cytokinin Dehydrogenase from Nostoc sp. PCC 7120” (PLoS ONE, 2015).
